Measured values from publication PMC7267771.
Blank lines part the entries; values can stand above or below the substance they belong to.

Experiments:
[1] = target: biotin-labeled UB2H domain of P. aeruginosa PBP1B (P. aeruginosa); experiment: BLI; UB2H-Biot (25 μg/ml) immobilised on streptavidin biosensors (OctetRED96e); LpoP 0 to 6 μM; HBS-T (10 mM Hepes pH 7.5, 150 mM NaCl, 0.02% Tween); 23°C; responses at equilibrium of two series fitted together
[2] = target: P. aeruginosa PBP1B (P. aeruginosa PA01)
[3] = target: P. aeruginosa PBP1B (P. aeruginosa PA01); experiment: SPR; PaPBP1B immobilised on a GLC amine coupling sensorchip (BioRad ProteOn XPR36); analyte in 1:1 serial dilution from 10 μM to 19.5 nM; 25°C; 75 μL/min, 5 min injection; 10 mM Tris/HCl, 150 mM NaCl, 0.05% Triton X-100, pH 7.5; response at equilibrium, non-linear regression assuming one-site saturation
[4] = target: P. aeruginosa CpoB lacking its periplasmic export sequence (residues 22-274) (P. aeruginosa PA01); experiment: SEC; PaCpoB alone, last step of its purification, procedure as for LpoP

biotin-labeled UB2H domain of P. aeruginosa PBP1B (P. aeruginosa), sequence (main, as listed by the source): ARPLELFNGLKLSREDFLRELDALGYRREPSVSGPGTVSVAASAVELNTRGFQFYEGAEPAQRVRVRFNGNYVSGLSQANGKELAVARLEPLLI

Kd [1]: 400 nM
Substance: LpoP (residues 20-259), preparation for NMR and BLI (natural protein)

Substance: LpoP lacking its lipoprotein sorting sequence (residues 20-259) (natural protein)
GTase rate of PaPBP1B with and without LpoP (continuous fluorescence assay, 0.5 μM PaPBP1B, 10 μM LpoP, 37°C) [2]: 4.5 fold | transpeptidation products made by PaPBP1B with and without LpoP (endpoint TPase assay with radiolabelled lipid II, 10 μM LpoP, 37°C, 3 h) [2]: 2 fold | Kd [3]: 4.2 µM

stoichiometry N [4]: 3
Substance: P. aeruginosa CpoB lacking its periplasmic export sequence (residues 22-274) (natural protein)
